Reference: the DeepSol protein solubility set

Experiment: soluble on expression in E. coli; label from the status in PepcDB or PDB records

Sequence	soluble on expression in E. coli
MGLSHKFQVKQFVEISPYSQSRLRHEQPQTPIHSDITTYHCHRGQFDIVAGGLPCQGTSNAGNRQGLDDPRSALWAEQFRIIESDRPAIALIENPTGLLYRGLEQIICDLDSIGYMGEWNCISAQQVGLPHQRKRIFIIAYSNGLFNQVVPAPWSNQIGNHITQVRLSLETRSYQPGISKVASRIPIGVAKNIPGNYDARRAYGLSCSPRQAAVAWKRIDYLCSLLEHHHHHH	not soluble
MGLTEQKQKHMEQLSDKNGIISALAFDQRGALKRLMAKYQSEEPTVSQIEALKVLVAEELTPYASSMLLDPEYGLPATKVLDDNAGLLLAYEKTGYDTSSTKRLPDCLDIWSAKRIKEEGADAVKFLLYYDVDSSDEVNEEKEAYIERIGSECVAEDIPFFLEILSYDEKITDSSGIEYAKIKPRKVIEAMKVFSNPRFNIDVLKVEVPVNMDYVEGFAQGETAYNKATAAAYFREQDQATLLPYIFLSAGVPAQLFQETLVFAKEAGAKFNGVLCGRATWAGSVKEYVEKGEAGARQWLRTIGFQNIDELNKILQKTATSWKER	not soluble
MGLTISSLFSRLFGKKQMRILMVGLDAAGKTTILYKLKLGEIVTTIPTIGFNVETVEYKNICFTVWDVGGQDKIRPLWRHYFQNTQGLIFVVDSNDRERIQEGAAVLEKMLLEDELQDAVLLLFANKQDLPNAMAISEMTDKLGLQSLRNRTWYVQATCATQGTGLYEGLDWLSHELSNVK	soluble
MGLWYRMLENQDLEEVITVRVQDPRVQNEGSWNSYVDYKIFLHTNSKAFTAKTSCVRRRYREFVWLRKQLQRNAGLVPVPELPGKSTFFGGSDEFIEKRRQGLQHFLEKVLQSVVLLSDSQLHLFLQSQLSVPEIEACVQGRGAMTVSDAILSYAMSNCGWAQEERQSTSHLAKGDQLNSCCFLPRSGRRSSPSPPLSEEKEQLETWAPVMDSEGPSSESPTLLPSSSLPACWDPARPEEGLSVSQPARRAVAADQAGPMEPTQLDTAWDK	soluble
MGMKFRVVCRKLYDYVRYDLKEIAFPSSLPDPPHIKKRPKLTLKDKWCILKEATRLYGASWVRDIGPDLRPNDYKKVKEEPDIKTEEGSSEPTTVEDLLGALKGGAEKAKPALQRMYMARASNYTDALKNYVESYKEGLKEHLEEEAMGKGHRQGNDATKPPQSPSS	soluble
MGMLDVSLHKITQKSQSLLHRTADRHLRLAVTGLSGAGKTAFITGLVNQLLNSGAVSTVSHSRQNGLPLWQVSREQRLLGVKRAMQPDLEIASFDYQGAMLALTSNPPTWPESTRTISELRLAIKYRPEKGLLAKFADAATLYLDIVDYPGEWLLDLPMLRQSYIEWCTTQQQRIAVLKSSPLYAGFETSLNALNLAAMADESELKRLADQYQQLLHDLVHVQGYYQAQPGRMLLPGEWQGAPLLAFFPLLSVTNAQWSNLKQSDKHSAFHVLEKRYQEYVAKVVKPFYKQHFAGFDRQVVLVDCFSALNRGKSQFEDMGAALNAIMESFQYGQSSYLRRLFAPRIDRLLFAASKVDHVTRDQQSHVLSLLTDMLKHSQHFAGFEGCKVETMAISAIKATRHGMVTTQEGDVEVVQGTGLNGQALTLFPGEVPTRLPEPDFWREQGFNFIGFAPPDNTNVDPSSVHFDHIRLDHLLQYLVGDKLE	not soluble
MGMTRNLLAAGLAAVLALPALAAELVMVEQHGCEWCARWNEEIAPIYPKTAEGAFAPLRRVDLRAIPADLETARRVVFTPTFLIVEDGRELARLEGYPGEDFFWPLLEQLLVDHAGFVPKKPGSS	not soluble
MGNASENFDIEDLMSYGDDLINLLNVKNGFDIISQSSEQFKALNFACHEDFNQIQGSIEDCKTKLYACKKKTEEAYSDIAAEDEIERLQKELDEEMEREFKLKDELR	soluble
MGNGDKVMSHWSFHIPRLHHHEHDHEKVPKGCLAVKVGQGEEQERFVIPVMYFNHPLFGQLLKEAEEEFGFAQKGTITIPCHVEEFRYVQGLIDRENTRFLGTNLLDHHHHHHNHLIRCFRV	not soluble
MGNKIHPIGFRLGITRDWESRWYAGKKQYRHLLLEDQRIRGLLEKELYSAGLARVDIERAADNVAVTVHVAKPGVVIGRGGERIRVLREELAKLTGKNVALNVQEVQNPNLSAPLVAQRVAEQIERRFAVRRAIKQAVQRVMESGAKGAKVIVSGRIGGAEQARTEWAAQGRVPLHTLRANIDYGFALARTTYGVLGVKAYIFLGEVIGGQKPKARPELPKAEERPRRRRPAVRVKKEE	soluble
MGNNQPGGMYKRDRPYDSEKSGSHSRSRGGIPSSSPSNEDECPVQMKIAKGDDKSKFPVVFKWNINNATPRQVYICGSWDGWNTKIPLVKSTSDFSTIVDLEPGKHEYKFMVDSKWVVDDNQQKTGNNLGGENNVVMIDEADFEVFDALDKDLASSNAGEALRNSHPTKESHDTPNDRELEKLHQFGQETPTRVDFNKAAAPPVLPPHLLQVILNKDTPVQCDPNVLPEPDHVMLNHLYALSIKDGVMVLSATHRYRKKFVTTLLYKPI	soluble
MGNQRHHYNDYEDVRMLKWVARNDKSLGPFGIITWQLYVEAYNCPYSVQSLCGRMRRQIVPNIDYYSRHLKSSDLISLERRFGSRLGAETRKYIRNLAVKTVKIVQVVASRPVEKNSEIEVQKVASLELQAAPTAPTTSAAQLGKTKSPGARTQRIERNDELSRDVFESSCASTIVEPEPPQEEPPQRSHNWKTEMRKIAGQAAQAINDLIRQTVENNDFNKKMFAELENQQNLDHLYGKMFDDPNKADWIMIDVKKFTENHLRMQYFRKIREELHKRFTNQHIIRAVFCFFQFFEYYVTVCVDESTDNYILLMNKVLEMSIKLLPLYIVHC	not soluble
MGNRKKKCGIVTFHSSHNYGSVLQAYAMVRVMQKMGLDAELIDFRHPRTTDMYEWRLWSTYKNWKWNLRELVLRGLFSFGKKREQVFSDFIENVLKKSKRVKDKNDIPDIYDILVCGSDQIWNPKASGENDPIYYLDFGTTTCKFSYAASSGSVRFGDENPELFKKYLQNLKSIGVRERFMQEYIKEELGLVSEINPDPTFLLNASEWSEIEKPYKGLPDNYLLIYTIKRPKETINFAHQVAVSLNLPTVQICNDRDLNALMHKDVDYRLMNVSPQQFLWLFHHASFIVTNTFHGNMFSVIYRKNFVHYGINSSDTRISTLHDEIRLKNKIVSSFEIDQRIIDYNLIEENVAYYCKCGLNFIQANINDD	not soluble
MGPLPRKGNMKQKITDYLDEIYGGTFTATHLQKLVTRLESAKRLITQRRKKHWDESDVVLITYADQFHSNDLKPLPTFNQFYHQWLQSIFSHVHLLPFYPWSSDDGFSVIDYHQVASEAGEWQDIQQLGECSHLMFDFVCNHMSAKSEWFKNYLQQHPGFEDFFIAVDPQTDLSAVTRPRALPLLTPFQMRDHSTRHLWTTFSDDQIDLNYRSPEVLLAMVDVLLCYLAKGAEYVRLDAVGFMWKEPGTSCIHLEKTHLIIKLLRSIIDNVAPGTVIITETNVPHKDNIAYFGAGDDEAHMVYQFSLPPLVLHAVQKQNVEALCAWAQNLTLPSSNTTWFNFLASHDGIGLNPLRGLLPESEILELVEALQQEGALVNWKNNPDGTRSPYEINVTYMDALSRRESSDEERCARFILAHAILLSFPGVPAIYIQSILGSRNDYAGVEKLGYNRAINRKKYHSKEITRELNDEATLRHAVYHELSRLITLRRSHNEFHPDNNFTIDTINSSVMRIPRSNADGNCLTGLFNVSKNIQHVNITNLHGRDLISEVDILGNEITLRPWQVMWIK	not soluble
MGPTQETYTIVRYQSGTFSKQLDEIVTESPITIKLNGEEYVTVVCTPNYIEDMVIGFLISEGIISSYNDVEELWVQKDNGIVHVKSSKVNPLYQTLYNKRYVTSCCGKGRQGFIFVNDAAKAKDLHDIHVKITPEECFYLMNTLQQSSTTFRQTGGVHNTALCDRNKILLSRMDIGRHNALDKIYGHCLRNDISVKGKIIAFSGRISSEILLKVSKIGCEIVLSKSAPTKLALQLAHDLGITVVGFIRNESCNIYTHPHRIDGYQSNNLEHHHHHH	soluble
MGQWANLKAKVIQLWENTHESISQVGLLGDETGIIKFTIWKNAELPLLEQGESYLLRSVVVGEYNDRFQVQVNKNSSIEKLSEPIEVGLEHHHHHH	not soluble
MGRHGKRGLNMTKQNSNTDRRSLQDCGVFSSAEYHSVGLSGGKDSSALLLLMLEKGMPIDSVIFADTGMDFPEMAAHIAKLDALLYRERGIHITTLRHPHGFEWLMFDEPKRKPSCLKNRARLGVPPYGNGWPGIKVRWCTGQLKTHLITKEVNRLKKEKNALHYIGIAADEAKRCKDAPNHRYPLVEWGVTEAQALQICYDRGFDFGGLYKIYHRASCWCCPLQRIGELRKLRQHHPELWARLWDMDNRARAQFGAGPLGQFKERWSIEQLDARFSREEKEERA	not soluble
MGRKKRLKVERKAVAENQSQILTMVTISETEMEKEKTYTALQKLKSVSNDLFEECQRVFANTSFCTAELENIVGCFDRYEKEISTIPDEYRTHPCVIKFQNCIRALCNVVAKKLNNTTRDVETQTNFQSPRITWRQRYWMPYLNK	not soluble
MGRMNVSMMRYLEGDHFRVLIAVEMGMKNHEVVPLALVSAIAGIHRGGVARTLNDLCKHSLVAFERSKKFDGYRLTIRGYDYLALRALCSREVVGSVGNQIGIGKESDVYVGGDPELNDLCLKFHRLGRTSFRKIKEKRDYHKKRKSASWLYLSRLAAAKEFAFLKALQERGFPVPKAVDVCRHLVVMQLVVGQTLCNVTHVEDAGALYDRLMALIVKMARHGVIHGDFNEFNLIMLEDERIVMIDFPQMVSIDHPNAEYYFDRDVTCVRTFFKRKFDYESEDWPKFDEVERKGNMDVLLEASGFTKKMALDLNKAYDEGDFLAHCEQELRNRQEEDLGEDEDDSDDSKSMEDIQEEPEDLEKDHEELQAQENTVKQQKIVLSQTTRFTDWLSDATNQLEAVDLDALKSEEGYKDIELPPEDFKRPADSENDDENDEDEEEGEEEDADGHVAVEEQVAKVVKKKRVPSGARSVASSAATFTAEDVKRRLALDRKRNKEKIRLKVKGKQSAVGRNRKDNKDVIAEYAGWI	not soluble
MGRRGMWYPLAAMKGVLEALHQGDYDTAIDLLTRKALFGREREAKEAWLLLAEVYALYGEEGLEKAHHALEEAYALGGLEYDPLYRSLLAELLALEGRPEREVLPLFLPSRDPRVRYHQAQALFYLGRLEEALEALEAGLPPHLAWRAEGLKGRILERLGRHGEAALAYERGAELALGLERYWLLLDAAAMWLEAGEGERALLALKEAEAAVGEEDPEDAATRHYLLARAHLLLGNPGLALEEIRKALALEEESGHKAYGTPLVEGQALLQLGRYEEAMASFREALARADAGERPHVLHEMGVAALDHGAYPEAEEHLRALVREEGYPYLAQAYADLAEALYRQGRYQEAEAAAREAVARGAVAAGELVLGHVAYDLLHLEEALEHYRKAAESAEEGSREWVGAQEMVVDTLAQLGYRFPEEMVRRGQAVLPYLHPADEWHAALTAYVERAQALLREGKRLN	soluble
MGRTTTPRDGDAALPPEYHGLHVAPVQPGHEAIEWLTPTNRSDRVRVVQHTCECRTTIYELCRSGGLMFIRRTVRTAKGARVHETERLITARMERLWMRLLLGQAR	not soluble
MGRVYYINSHGTLSRHENTLRFENAEVKKDIPVEDVEEIFVFAELSLNTKLLNFLASKGIPLHFFNYYGYYTGTFYPRESSVSGHLLIKQVEHYLDAQKRLYLAKSFVIGSILNLEYVYKISADTYLNKVKETNSIPELMSVEAEFRKLCYKKLEEVTGWELEKRTKRPPQNPLNALISFGNSLTYAKVLGEIYKTQLNPTVSYLHEPSTKRFSLSLDVAEVFKPIFVDNLIIRLIQENKIDKTHFSTELNMTFLNEIGRKVFLKAFNELLETTIFYPKLNRKVSHRTLIKLELYKLIKHLLEEEVYLPLNYGGLK	soluble
